Source: IntAct's records for PubMed 16230351

B1: E3 ubiquitin-protein ligase SIAH1 (Homo sapiens), Q8IUQ4 (parent)
chain: MSRQTATALPTGTSKCPPSQRVPALTGTTASNNDLASLFECPVCFDYVLPPILQCQSGHLVCSNCRPKLTCCPTCRGPLGSIRNLAMEKVANSVLFPCKYASSGCEITLPHTEKADHEELCEFRPYSCPCPGASCKWQGSLDAVMPHLMHQHKSITTLQGEDIVFLATDINLPGAVDWVMMQSCFGFHFMLVLEKQEKYDGHQQFFAIVQLIGTRKQAENFAYRLELNGHRRRLTWEATPRSIHEGIATAIMNSDCLVFDTSIAQLFAENGNLGINVTISMC
partner: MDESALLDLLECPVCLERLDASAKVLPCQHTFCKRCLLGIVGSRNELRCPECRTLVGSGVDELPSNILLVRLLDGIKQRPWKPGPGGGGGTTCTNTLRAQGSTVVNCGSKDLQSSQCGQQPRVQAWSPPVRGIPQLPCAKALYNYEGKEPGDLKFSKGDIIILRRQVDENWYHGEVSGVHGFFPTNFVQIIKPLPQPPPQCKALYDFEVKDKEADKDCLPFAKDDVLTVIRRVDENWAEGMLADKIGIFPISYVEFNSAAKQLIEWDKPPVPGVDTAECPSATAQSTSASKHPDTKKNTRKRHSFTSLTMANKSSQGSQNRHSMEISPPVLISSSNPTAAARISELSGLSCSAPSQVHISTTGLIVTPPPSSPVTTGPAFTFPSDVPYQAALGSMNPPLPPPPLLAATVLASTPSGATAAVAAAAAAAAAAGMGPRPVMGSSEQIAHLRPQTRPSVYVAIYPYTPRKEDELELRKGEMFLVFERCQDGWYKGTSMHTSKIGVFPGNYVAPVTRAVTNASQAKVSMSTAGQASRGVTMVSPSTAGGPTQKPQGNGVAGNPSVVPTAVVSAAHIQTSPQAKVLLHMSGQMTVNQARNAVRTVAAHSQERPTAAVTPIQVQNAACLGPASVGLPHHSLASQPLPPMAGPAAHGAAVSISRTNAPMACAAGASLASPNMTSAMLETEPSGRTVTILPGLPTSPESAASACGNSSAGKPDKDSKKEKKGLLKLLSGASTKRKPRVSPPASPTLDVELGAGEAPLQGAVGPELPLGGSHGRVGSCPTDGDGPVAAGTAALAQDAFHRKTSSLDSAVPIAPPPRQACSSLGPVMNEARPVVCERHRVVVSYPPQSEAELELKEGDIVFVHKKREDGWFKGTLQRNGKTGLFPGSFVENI

Variants of: B1
Settings: with sh3r1_mouse Sh3rf1, Q69ZI1

effect of a mutation on the interaction | Variant
decreasing interaction | C41S;C44S
